Experimental data taken from article PMC11986105 (2025).
Several values for one entry are separate records, joined by “and”; a condition that tells them apart may be missing. Equal entries are not always repeated. Ends that are not written are not given here.

B1: darobactin (peptide)
chain: WNWSKSF
modifications: also: post-translationally formed bicyclic ring structures
B2: cyclic peptide CP1 (peptide)
chain: FLWFYHRPVRGFDCG
modifications: also: cyclic peptide, closure not given here

Tests used:
[1] = molecular target: T1, E. coli K-12 BamA β-barrel (residues 421–810), N-terminally biotinylated (E. coli K-12 (strain MG1655), UniProt P0A940 421-810, biotin on the N-terminal Avitag (BirA ligase)); test: SPR
[2] = molecular target: T1, E. coli K-12 BamA β-barrel (residues …); test: SPR; apparent, BamA pre-equilibrated with 2 uM darobactin
[3] = molecular target: T1, E. coli K-12 BamA β-barrel (residues …); test: SPR; remark: listed apart in the source

Binder	koff [1] [s⁻¹]	Kd [2] [nM]	Kd [3]
B1	0.012	–	–
B2	0.0023	~5	6.6 nM and ~8 nM
